Data: publication PMC12718013

Target: purified human vitronectin (Invitrogen) (UniProt P04004)
Experiment: ELISA
Details: 20 nM Vn, read off a plot

Chain of UniProt P04004 (P04004 whole entry, looked up): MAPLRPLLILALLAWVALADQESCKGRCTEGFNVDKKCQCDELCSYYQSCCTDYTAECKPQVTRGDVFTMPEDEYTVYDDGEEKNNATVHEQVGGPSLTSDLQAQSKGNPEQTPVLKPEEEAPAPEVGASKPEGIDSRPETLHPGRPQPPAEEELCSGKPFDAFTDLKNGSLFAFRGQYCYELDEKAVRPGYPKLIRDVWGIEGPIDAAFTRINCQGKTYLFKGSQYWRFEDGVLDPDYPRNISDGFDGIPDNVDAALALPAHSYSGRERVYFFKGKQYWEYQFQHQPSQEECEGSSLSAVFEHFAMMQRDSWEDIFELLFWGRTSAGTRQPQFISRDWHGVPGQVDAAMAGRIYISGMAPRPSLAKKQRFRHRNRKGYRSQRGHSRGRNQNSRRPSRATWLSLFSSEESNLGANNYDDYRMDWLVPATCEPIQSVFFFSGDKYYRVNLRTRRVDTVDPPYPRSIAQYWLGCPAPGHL

synthetic peptide of loop 2 of P5 from NTHi 3655 L5A; V8A; S12A
response (absorbance at 450 nm) (parent: est. 0.28): 0.13

synthetic peptide of loop 2 of P5 from NTHi KR271 I5A
response (absorbance at 450 nm) (parent: est. 0.12): 0.1

synthetic peptide of loop 2 of P5 from NTHi KR317 L5A; V8A; Q10A; T11A; R12A
response (absorbance at 450 nm) (parent: est. 0.23): 0.095

synthetic peptide of loop 2 of P5 from NTHi P652 V3A; F5A; L7A
response (absorbance at 450 nm) (parent: est. 0.97): 0.45
